Experimental data reported in patent US20230272073A1.

Tests used:
[1] = target: membrane-bound IGHV3-21/IGLV3-21^R110 BCR on murine TKO cells (human); assay: flow cytometry dot plot, cell mix A (1:1 IGHV3-21/IGLV3-21^R110 BCR TKO cells and BCR-negative TKO cells), 2 µg/ml anti-human IgM-PE
[2] = target: IGHV3-21/IGLV3-21^G110 BCR on murine TKO cells (human) (UniProt P01871); assay: flow cytometry dot plot, cell mix B (1:1 IGHV3-21/IGLV3-21^G110 BCR TKO cells and BCR-negative TKO cells), 2 µg/ml anti-human IgM-PE
Chain of IGHV3-21/IGLV3-21^G110 BCR on murine TKO cells (human) (P01871 other isoform, or with tags, fused parts or gaps, chain 1 of 2): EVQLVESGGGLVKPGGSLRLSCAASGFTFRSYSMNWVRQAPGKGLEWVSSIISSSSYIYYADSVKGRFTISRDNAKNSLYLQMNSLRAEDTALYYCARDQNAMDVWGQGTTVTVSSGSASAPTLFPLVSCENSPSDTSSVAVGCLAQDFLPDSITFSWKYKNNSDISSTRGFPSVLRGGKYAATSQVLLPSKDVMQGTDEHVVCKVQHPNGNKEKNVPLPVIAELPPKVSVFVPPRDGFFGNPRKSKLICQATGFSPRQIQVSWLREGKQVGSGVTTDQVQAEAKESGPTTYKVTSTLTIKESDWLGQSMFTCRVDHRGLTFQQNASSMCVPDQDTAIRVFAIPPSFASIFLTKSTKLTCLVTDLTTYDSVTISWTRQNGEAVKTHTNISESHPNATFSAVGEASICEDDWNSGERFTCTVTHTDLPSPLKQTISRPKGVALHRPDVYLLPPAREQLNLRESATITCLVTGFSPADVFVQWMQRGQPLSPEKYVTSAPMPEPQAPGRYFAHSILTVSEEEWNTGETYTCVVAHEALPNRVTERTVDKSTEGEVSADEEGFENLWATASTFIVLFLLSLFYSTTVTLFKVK
Chain of IGHV3-21/IGLV3-21^G110 BCR on murine TKO cells (human) (light, as listed by the source, chain 2 of 2): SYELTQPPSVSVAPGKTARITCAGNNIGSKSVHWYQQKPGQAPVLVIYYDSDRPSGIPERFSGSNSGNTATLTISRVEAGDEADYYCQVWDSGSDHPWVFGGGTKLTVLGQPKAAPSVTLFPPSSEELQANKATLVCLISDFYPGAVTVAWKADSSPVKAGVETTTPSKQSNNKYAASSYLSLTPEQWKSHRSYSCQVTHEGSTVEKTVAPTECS

Chain of membrane-bound IGHV3-21/IGLV3-21^R110 BCR on murine TKO cells (human) (P01871 other isoform, or with tags, fused parts or gaps, chain 1 of 2): as the sequence (P01871 other isoform, or with tags, fused parts or gaps, chain 1 of 2) above
Chain of membrane-bound IGHV3-21/IGLV3-21^R110 BCR on murine TKO cells (human) (light, as listed by the source, chain 2 of 2): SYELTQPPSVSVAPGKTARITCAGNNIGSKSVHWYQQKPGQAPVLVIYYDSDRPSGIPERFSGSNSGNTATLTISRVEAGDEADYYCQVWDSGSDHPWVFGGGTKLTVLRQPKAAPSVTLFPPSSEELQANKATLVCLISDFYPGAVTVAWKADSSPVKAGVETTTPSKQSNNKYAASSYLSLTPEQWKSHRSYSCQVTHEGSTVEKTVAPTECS

Anti-human IgM-PE, Clone: MHM-88, BioLegend Cat-No.: 314508 (antibody)
share of gated cells (P1) in quadrant Q1 (anti-IgM-PE positive, mAb01-01-APC negative) [1]: 2.78% | share of gated cells (P1) in quadrant Q2 (anti-IgM-PE positive, mAb01-01-APC positive) [1]: 45.5% | share of gated cells (P1) in quadrant Q1 (anti-IgM-PE positive, mAb01-01-APC negative) [2]: 42.2% | share of gated cells (P1) in quadrant Q2 (anti-IgM-PE positive, mAb01-01-APC positive) [2]: 1.11%
